Laboratory results reported in US20100203559A1.
Residue numbers refer to the chain shown, from its start.

B1: α-SNAP-25 monoclonal antibody 2E2A6 (antibody, V domains shown)
VH: QVQLQQSDAELVKPGASVKISCRASGYTFTDHSIHWVKQQPGQGLEWIGYIFPGNGNIEYNDKFKGKATLTADKSSGTAYMQLNSLTSEDSAVYFCKRMGYWGQGTSVTVSS
VL: DVLMTQTPLTLSVTIGQPASISCKSSQSLLYTNGKTYLTWLFQRPGQSPKRLIYLVSELDSGVPDRFSGSGSGTDFTLEITRVEAEDLGVYYCLQSAHFPFTFGSGTKLEIKR
B2: α-SNAP-25 monoclonal antibody 3C1A5 (antibody, V domains shown)
VH: QVKLQESGAELVKPGASVKISCKASGYTFTDHSIHWVKQKPGQGLEWIGYLFPGNGNFEYNEKFKGKATLTADKSSSTVYMYLNSLTSEDSAVYFCKRMGYWGQGTTVTVSS
VL: B1 VL with L3V, Y31N, F42I, K50Q, E58K, E79K, T81S, A97S
B3: α-SNAP-25 monoclonal antibody 1D3B8 (antibody, V domains shown)
VH: QVKLQESGAELVKPGASVKISCKASGYIFTDHALHWVRQKPEQGLEWIGYIFPGNGNIEYNEKFKGKATLTADKSSSTAYMQLNSLTSGDSAMYFCKKMDYWGQGTTVTVSS
VL: DVLMTQTPLSLPVSLGDQASISCRSSQSIVHSNGNTYLEWYLQKPGQSPKLLIYKVSNRFSGVPDRFSGSGSGTDFTLKISRVEAEDLGVYYCFQGSHVPPTFGAGTKLELKR
B4: α-SNAP-25 monoclonal antibody 2C9B10 (antibody, V domains shown)
VH: B2 VH with V79A, Y82H, R98K, G100D
VL: DIQMTQSPASLSASVGETVTITCRTTENIYSYFVWSQQRQGKSPQLRVYNAKSLAEGVPSSFNVSVSGTQFSLKINSLQPEDFGTYHCQHHYGTPYTFGGGTRLEIRR

Legend:
[1] = biological target: SNAP-25134-197 peptide (human); assay: SPR (BIAcore 3000), peptide amine-coupled to CM5, antibody as analyte, 1:1 fit; second of two runs, other chip
[2] = biological target: SNAP-25134-197 peptide (human); assay: SPR (BIAcore 3000), peptide amine-coupled to CM5, antibody as analyte, 1:1 fit; first of two runs
[3] = biological target: SNAP-25134-197 peptide (human); assay: SPR (BIAcore 3000), peptide amine-coupled to CM5, antibody as analyte, 1:1 fit
[4] = biological target: SNAP-25134-197 peptide (human); assay: SPR (BIAcore 3000); by Table 9 the KD of 1D3B8 is the lower one

Binder | Kd [1] [pM] | koff [1] [s⁻¹] | kon [1] [M⁻¹ s⁻¹] | Kd [2] [pM] | koff [2] [s⁻¹] | kon [2] [M⁻¹ s⁻¹] | Kd [3] [pM] | koff [3] [s⁻¹] | kon [3] [M⁻¹ s⁻¹] | fold difference of the equilibrium disassociation constant against MC-6050 and MC-6053 [4] [fold]
B1 | 405 | 6.74e-05 | 166000 | 90 | 0.000153 | 1.7e+06 | – | – | – | –
B2 | – | – | – | – | – | – | 1330 | 0.000288 | 217000 | –
B3 | – | – | – | – | – | – | 50 | 5.78e-05 | 1.06e+06 | 10
B4 | – | – | – | – | – | – | 27100 | 0.000311 | 11500 | –
